Our source for the protein stability index values is the supplement of paper PMC10567573.

The nature of this data set: protein stability index of a GFP-peptide fusion (GPS, HEK-293T) (PSI 1-6); higher = more stable. Conditions: c terminus: a fixed tail appended.

± gives the standard deviation.
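Further: 24-mer peptide tiles fused after GFP, lentivirally expressed, FACS-sorted into six equal bins by GFP/DsRed ratio, decoded by Illumina sequencing, PSI is the read-weighted mean bin number.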

As to RDGEPEPMQKLQDLVNRTPWKKCC [RBBP5], the protein stability index was determined as 4 ± 0.21 (treatment: DMSO) and 4.04 ± 0.21 (treatment: MLN4924 1 uM, 8 h).

With NERMLESYLHAKKYLKPSGNMFPT [CARM1], the protein stability index by setting is: (treatment: DMSO) 2.59 ± 0.26; (treatment: MLN4924 1 uM, 8 h) 2.99 ± 0.37.

As for YSDGADDTFAAYTREQLYQAIFHA [MCOLN1], the protein stability index was determined as 2.54 ± 0.23 (treatment: DMSO) and 2.52 ± 0.37 (treatment: MLN4924 1 uM, 8 h).

In turn, VRNNRSIIKQLKDVFERDWYSPYA [PLD5] showed a protein stability index (treatment: DMSO) of 2.41 ± 0.54 and a protein stability index (treatment: MLN4924 1 uM, 8 h) of 2.41 ± 0.21.

For FSLNPRSGSLITAGRIDREELCAQ [PCDHGA10], the protein stability index worked out at 3.83 ± 0.38 (treatment: DMSO) and 3.93 ± 0.37 (treatment: MLN4924 1 uM, 8 h).

For the sequence AQLYEDFLFPIDISLVKREHDFLD [DLC1], the protein stability index came out at 2.52 ± 0.12 (treatment: DMSO) and 2.7 ± 0.28 (treatment: MLN4924 1 uM, 8 h).

Regarding EARGIRAPPLPDSPQPLASSPGPW [FCHO1], the protein stability index reads like this: (treatment: DMSO) 4.34 ± 0.28; (treatment: MLN4924 1 uM, 8 h) 4.31 ± 0.15.

For the sequence TQVKVVKFSYMWTINNFSFCREEM [SPOPL], the protein stability index was found to be 2.65 ± 0.92 (treatment: DMSO) and 2.77 ± 0.72 (treatment: MLN4924 1 uM, 8 h).

For the sequence STPAPAERPLPNPEGLDSDFLAVL [SLA], the protein stability index (treatment: DMSO) came to 4.29 ± 0.35 and the protein stability index (treatment: MLN4924 1 uM, 8 h) turned out to be 4.26 ± 0.21.

On to TKRSTLIISGVSKVPIAQDELALS [C2CD2L], for which the protein stability index is 3.16 ± 0.17 (treatment: DMSO) and 3.14 ± 0.19 (treatment: MLN4924 1 uM, 8 h).

On to VRVNDGGGSHPSRPNSRHTPSFSG [VDR], for which the protein stability index is, setting by setting: (treatment: DMSO) 3.72 ± 0.14; (treatment: MLN4924 1 uM, 8 h) 3.86 ± 0.19.

Turning to DLAEFAKKQPWWRKLFGQESGPSA [FUNDC2], the protein stability index came out at 2.65 ± 0.13 (treatment: DMSO) and 2.58 ± 0.17 (treatment: MLN4924 1 uM, 8 h).

As for SLEIEEKINKIRWLPQQNAAYFLL [PPP2R2B], the protein stability index was 2.34 ± 1.1 (treatment: DMSO) and 2.01 ± 1.1 (treatment: MLN4924 1 uM, 8 h).

As to PRLHGAKAILDAEPGPRPALQPSP [TBC1D10A], the protein stability index is, setting by setting: (treatment: DMSO) 4.81 ± 0.19; (treatment: MLN4924 1 uM, 8 h) 4.94 ± 0.17.

With GAGDWREKEAKDLTELVQRRITYL [FUT8], the protein stability index came out at 3.61 ± 0.27 (treatment: DMSO) and 3.31 ± 0.3 (treatment: MLN4924 1 uM, 8 h).

For EGKRKAFYTCASHVTVVILFFVPC [OR4A15], the protein stability index is, setting by setting: (treatment: DMSO) 2.77 ± 0.18; (treatment: MLN4924 1 uM, 8 h) 3.03 ± 0.38.

On to AIHQDPPDECGKTEFTRFLCSSPL [ATE1], for which the protein stability index reads like this: (treatment: DMSO) 3.78 ± 0.24; (treatment: MLN4924 1 uM, 8 h) 3.82 ± 0.17.

Consider LCPLCGKNFSNNSNLIRHQRIHAA [ZNF263], for which the protein stability index came to 3.97 ± 0.5 (treatment: DMSO) and 4.12 ± 0.47 (treatment: MLN4924 1 uM, 8 h).

Turning to VFITYSMDTAMEVVKFVNFLLVNG [TRAF3IP2], the protein stability index amounted to 3.39 ± 0.062 (treatment: DMSO) and 2.06 ± 0.64 (treatment: MLN4924 1 uM, 8 h).

With SCAWSLNIQANNCFSTGLSRRVLL [DCAF4], the protein stability index is, setting by setting: (treatment: DMSO) 3.38 ± 0.47; (treatment: MLN4924 1 uM, 8 h) 2.35 ± 0.38.

Take NKRVGMYLEGFDPFNQSTFNNVVE [DLC1]: the protein stability index (treatment: DMSO) was determined as 3.09 ± 0.24 and the protein stability index (treatment: MLN4924 1 uM, 8 h) was 3.23 ± 0.2.

As to GDDAPKEEVDTGAVNLIESGACGA [INTS4], the protein stability index is, setting by setting: (treatment: DMSO) 5.5 ± 0.25; (treatment: MLN4924 1 uM, 8 h) 5.36 ± 0.18.

For the sequence VVNHLSCDEARNHYGGVVSLIPLI [SPACA9], the protein stability index is, setting by setting: (treatment: DMSO) 2.2 ± 0.14; (treatment: MLN4924 1 uM, 8 h) 2.12 ± 0.24.

For the sequence GMVRAHGVRVSVPCPSTTCCRACS [BET1L], the protein stability index is, setting by setting: (treatment: DMSO) 3.04 ± 0.29; (treatment: MLN4924 1 uM, 8 h) 3.4 ± 0.51.

With SEALLYALVHDHQAYAHYLLATFP [ANKRD9], the protein stability index turned out to be 2.7 ± 0.49 (treatment: DMSO) and 2.61 ± 0.53 (treatment: MLN4924 1 uM, 8 h).

As for ASSWKKQVSHDFLETRFKIQQLLE [FBXO34], the protein stability index came out at 2.89 ± 0.31 (treatment: DMSO) and 2.71 ± 0.41 (treatment: MLN4924 1 uM, 8 h).

As for MGDEEKRNRAITARRQHLKSVMLQ [TNNI2], the protein stability index is, setting by setting: (treatment: DMSO) 4.06 ± 0.3; (treatment: MLN4924 1 uM, 8 h) 4.12 ± 0.21.

Turning to ELQGDFSVPDVPKSMAWCENSICV [VPS39], the protein stability index by setting is: (treatment: DMSO) 2.67 ± 0.22; (treatment: MLN4924 1 uM, 8 h) 2.67 ± 0.18.

Turning to AAAPVAEVPTAAGALTPTPAPTTT [CLPTM1], the protein stability index worked out at 5.3 ± 0.34 (treatment: DMSO) and 5.25 ± 0.097 (treatment: MLN4924 1 uM, 8 h).

MKALILVGGYGTRLRPLTLSTPKP [GMPPB]: the protein stability index (treatment: DMSO) worked out at 2.18 ± 0.61 and the protein stability index (treatment: MLN4924 1 uM, 8 h) was found to be 2.23 ± 0.23.

Consider PTRCTLEAGAMTFHYIIEQGVCYL [SEC22B], for which the protein stability index by setting is: (treatment: DMSO) 2.93 ± 0.96; (treatment: MLN4924 1 uM, 8 h) 3.14 ± 0.46.

Take SSLTADLLSVDAFAAPSPATTASP [SNAP91]: the protein stability index is, setting by setting: (treatment: DMSO) 4.65 ± 0.19; (treatment: MLN4924 1 uM, 8 h) 4.7 ± 0.083.

Take LELLLDASALTLVLGGRRLRRAWF [SCNN1D]: the protein stability index (treatment: DMSO) is 2.94 ± 0.81 and the protein stability index (treatment: MLN4924 1 uM, 8 h) came to 2.4 ± 0.58.

For the sequence VLSSWSRAFVSIQEEMAEDPLTYK [RHOBTB2], the protein stability index is, setting by setting: (treatment: DMSO) 2.89 ± 0.14; (treatment: MLN4924 1 uM, 8 h) 3.17 ± 0.6.

Regarding GNFESLDLAEFAKKQPWWRKLFGQ [FUNDC2], the protein stability index by setting is: (treatment: DMSO) 3.31 ± 0.24; (treatment: MLN4924 1 uM, 8 h) 3.29 ± 0.35.

Turning to HTLRASMRELGLLIFFLFIGVILF [KCNA4], the protein stability index stood at 2.86 ± 0.53 (treatment: DMSO) and 2.61 ± 0.49 (treatment: MLN4924 1 uM, 8 h).
